The source of these data is PMC6789926.

One may read the Kd as the equilibrium constant for the complex coming apart. Low readings indicate a tighter complex, high ones a looser complex. One may read the koff as the rate constant with which the complex falls apart. The term kon denotes the rate constant with which the complex forms. Higher therefore signals fast association.

B1: mouse ephrin-A2 (soluble, Fc-conjugated) (Fc fusion)
chain: RNEDPARANADRYAVYWNRSNPRFQVSAVGDGGGYTVEVSINDYLDIYCPHYGAPLPPAERMERYILYMVNGEGHASCDHRQRGFKRWECNRPAAPGGPLKFSEKFQLFTPFSLGFEFRPGHEYYYISATPPNLVDRPCLRLKVYVRPTNETLYEAPEPIFTSN
B2: human ephrin-A5 (soluble, Fc-conjugated) (Fc fusion)
chain: QDPGSKAVADRYAVYWNSSNPRFQRGDYHIDVCINDYLDVFCPHYEDSVPEDKTERYVLYMVNFDGYSACDHTSKGFKRWECNRPHSPNGPLKFSEKFQLFTPFSLGFEFRPGREYFYISSAIPDNGRRSCLKLKVFVRPTNSCMKTIGVHDRVFDVNDKVENSLEPADDTVHESAEPSRGEN
B3: mouse ephrin-A1 (soluble, Fc-conjugated) (Fc fusion)
chain: ADRHIVFWNSSNPKFREEDYTVHVQLNDYLDIICPHYEDDSVADAAMERYTLYMVEHQEYVACQPQSKDQVRWNCNRPSAKHGPEKLSEKFQRFTPFILGKEFKEGHSYYYISKPIYHQESQCLKLKVTVNGKITHNPQAHVNPQEKRLQADDPEVQVLHSIGYS

The target in the experiment is tetrameric soluble CedV G (sG) (Cedar virus). Description: SPR.
For the molecule human ephrin-A1 Fc (Fc fusion), the Kd is 4210 nM and the off-rate (koff) was 0.00981 s⁻¹.

“mouse ephrin-B1 (soluble, Fc-conjugated) (from UniProt P52795 25-345) (Fc fusion)” came in with a Kd of 0.24 nM and a koff of 0.00029 s⁻¹.

In the case of “mouse ephrin-B2 (soluble, Fc-conjugated) (from UniProt P52800 29-232) (Fc fusion)”, the Kd turned out to be 0.56 nM, the koff came to 0.00103 s⁻¹ and the kon was 1.84e+06 M⁻¹ s⁻¹.

For the molecule B1, the equilibrium dissociation constant (Kd) worked out at 196 nM, the off-rate constant (koff) came out at 0.00636 s⁻¹ and the on-rate constant (kon) was 32400 M⁻¹ s⁻¹.

Regarding B2, the Kd turned out to be 113 nM and the dissociation rate constant (koff) was determined as 0.00079 s⁻¹.

B3 showed a Kd of 24.5 nM, a koff of 0.00179 s⁻¹ and a kon of 73900 M⁻¹ s⁻¹.
